In US20100068807:

Target: GST fusion IRF7 (GST fused to amino acids 422-457 of mouse IRF-7, from pGST-IRF7) [GST: P08515]

B1: 6myc-mIKKα (wild-type mouse IKKα with 6 myc tags, expressed from pSRα-6myc-mIKKα in 293T cells) (protein)
chain: MERPPGLRPGAGGPWEMRERLGTGGFGNVSLYQHRELDLKIAIKSCRLELSSKNRERWCHEIQIMKKLDHANVVKACDVPEELNFLINDVPLLAMEYCSGGDLRKLLNKPENCCGLKESQILSLLSDIGSGIRYLHENKIIHRDLKPENIVLQDVGGKTIHKIIDLGYAKDVDQGSLCTSFVGTLQYLAPELFENKPYTATVDYWSFGTMVFECIAGYRPFLHHLQPFTWHEKIKKKDPKCIFACEEMTGEVRFSSHLPQPNSLCSLIVEPMESWLQLMLNWDPQQRGGPIDLTLKQPRCFALMDHILNLKIVHILNMTSAKIISFLLPCDESLHSLQSRIERETGINTGSQELLSETGISLDPRKPASQCVLDGVRGCDSYMVYLFDKSKTVYEGPFASRSLSDCVNYIVQDSKIQLPIIQLRKVWAEAVHYVSGLKEDYSRLFQGQRAAMLSLLRYNANLTKMKNTLISASQQLKAKLEFFRKSIQLDLERYSEQMTYGISSEKMLKAWKEMEEKAIHYSEVGVIGYLEDQIMSLHTEIMELQKSPYGRRQGDLMESLEQRAIDLYKQLKHRPPDHLYSDSTEMVKIIVHTVQSQDRVLKELFGHLSKLLGCKQKIIDLLPKVEVALSNIKEADNTVMFMQGKRQKEIWHLLKIACTQSSARSLVGSSLEGTVTPPVSAWLPPTLADREHPLTCVVTPQDGETLAQMIEENLNCLGHLSTIIREANEDQSSSLMSLDWSWLAE
For B1, the “phosphorylation of substrate (in vitro kinase assay with [γ-32P]ATP, SDS-PAGE and autoradiography)” value was “IRF7 was phosphorylated by IKKα”.
